Changes are numbered by the printed parent chain. Bridge positions count the residues as written; N and C are the ends. Square brackets hold non-standard residues; d marks the D form. Ends that are not written are not given here. S5 = C=CCCC[C@](C)(N)C(=O)O
Legend:
Bfl-1 [1] = molecular target: T1, Bfl-1 (Homo sapiens, UniProt Q16548); test: Bfl-1:NOXA conjugation assay (disulfide bond formation); format: binding; details: compared with BCL-XL and MCL-1; non-reducing SDS-PAGE
T1 sequence (Q16548 1-175): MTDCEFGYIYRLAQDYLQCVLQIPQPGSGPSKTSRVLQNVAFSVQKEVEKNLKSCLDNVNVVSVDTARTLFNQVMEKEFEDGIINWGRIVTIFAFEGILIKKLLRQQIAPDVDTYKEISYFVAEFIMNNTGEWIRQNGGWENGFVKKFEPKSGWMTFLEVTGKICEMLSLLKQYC
Method: Next, the impact of the C25 in NOXA was investigated. Bfl-1 and NOXA have cysteine residues within 3.5 Å of the Bfl-1 BH3 binding pocket according to modelling. […] To examine the impact of C25 in NOXA on target interaction, we examined the binding of WT NOXA SAHB and NOXA C25S SAHB to Bfl-1 and to a variety of Bfl-1 cysteine mutants. In vitro conjugation assays were performed in order to verify the formation of the disulfide bond. Global reduction of the protein and the NOXA peptides, followed by the introduction of an oxidant such as GSSG led to production of a disulfide bond, shown as a 3 kDa shift on non-reducing SDS-PAGE (FIG. 4A). […] (FIG. 4A).
Bfl-1:NOXA conjugation assay: The conjugation assay was developed to test for disulfide bond formation in a non-reducing environment. 3:1 FITC-stapled peptide:protein molar ratio was combined in the presence of DTT, then diluted and incubated with 1.2 molar excess GSSG. Samples were then run on non-reducing SDS-PAGE, scanned for fluorescence, then stained with Coomassie.

Bfl-1 [2] = molecular target: T1, Bfl-1; test: Liposomal release assay (Bfl-1 inhibition of BAX activation); format: biochemical
Method: The functional impact of the Bfl-1:NOXA disulfide bond formation was evaluated using competitive binding assays and liposomal release assays. […] Bfl-1 alone in the liposomal release assay inhibits activation of BAX and subsequent pore formation in the liposomes. […] (FIG. 5A and FIG. 5B).
Liposomal release assay: Large unilamellar vesicles (LUVs) with lipid composition resembling the mitochondrial outer membrane were generated, encapsulating the fluorescent dye ANTS (8-aminonaphthalene-1,3,6-trisulfonic acid, disodium salt) and the quencher DPX (p-xylene-bis-pyridinium bromide). For measurement of Bfl-1-induced inhibition of BAX, Bfl-1, BAX, tBid activator and liposomes were combined. To test effects of covalently bound Bfl-1:NOXA on BAX activation, Bfl-1 and NOXA SAHB were preincubated as described, then used at the designated concentrations. ANTS release and dequenching due to DPX dissociation (F) was measured over a period of 120 min with an M1000 Infinite plate reader (Tecan) with excitation and emission wavelengths of 355 nm and 520 nm, respectively. Plates were read following liposome lysis with 1% Triton X-100 to determine maximal release (F100). Percent ANTS/DPX release was calculated as [(F−F0)/(F100−F0)]×100.

BFL-1ΔC [3] = molecular target: T2, BFL-1ΔC (Homo sapiens, UniProt Q16548); test: In vitro covalent conjugation assay; format: binding; details: DTT (10 mM) reduction then GSSG oxidation (12 mM); Coomassie, FITC scan
T2 construct: cDNA encoding BFL-1ΔC (aa 1-153) was cloned into the pET19b expression vector; made in house; host or cells: Escherichia coli BL21(DE3) LOBSTR
T2 sequence (Q16548 1-153): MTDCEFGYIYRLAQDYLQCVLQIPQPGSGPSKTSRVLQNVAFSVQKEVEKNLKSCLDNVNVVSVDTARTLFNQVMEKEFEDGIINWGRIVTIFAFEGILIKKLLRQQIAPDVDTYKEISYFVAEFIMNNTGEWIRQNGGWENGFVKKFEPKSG
Method: (§1) In Vitro Covalent Conjugation Assay: BFL-1ΔC constructs (40 μM) were combined with NOXA SAHBA or NOXA SAHBA C25S (120 μM) and 10 mM DTT in 50 mM Tris pH 8.0, 100 mM NaCl (final volume, 5 μL), and then incubated in the dark for 1 h at room temperature (RT). After this incubation in a reducing environment, the mixture was diluted 5-fold into 50 mM Tris pH 8.0, 100 mM NaCl, 12 mM GSSG and incubated in the dark for an additional 30 min at RT. The samples were then boiled in 4× loading buffer lacking DTT and electrophoresed on 12% Bis-Tris gel. The gel was rinsed with water, subjected to FITC scan (Typhoon FLA 9500, GE Healthcare) and then Coomassie staining.
(§2) For warhead-bearing SAHBs, His-BFL-1ΔC C4S/C19S protein was pretreated with 10 mM DTT in 50 mM Tris pH 8.0, 100 mM NaCl for 30 min at RT (final volume, 9.5 μL), and then combined with a 10:1 molar ratio of NOXA SAHBA or BIM SAHBA peptides bearing warheads 1-8 (final volume, 10 μL) for an additional 2 h incubation at RT. Processing for gel electrophoresis and Coomassie staining was performed as above.

BFL-1ΔC [4] = molecular target: T3, BFL-1ΔC (Homo sapiens, UniProt Q16548, C19S/C4S); test: In vitro covalent conjugation assay; format: binding; details: only C55 present; oxidizing conditions
T3 construct: cDNA encoding BFL-1ΔC (aa 1-153) was cloned into the pET19b expression vector; made in house; host or cells: Escherichia coli BL21(DE3) LOBSTR
T3 sequence (Q16548 1-153 C4S/C19S): T2 sequence (Q16548 1-153) with C4S, C19S
Method: as §1, §2

BFL-1ΔC [5] = molecular target: T4, BFL-1ΔC (Homo sapiens, UniProt Q16548, C19S/C4S/C55S); test: In vitro covalent conjugation assay; format: binding; details: lacks C55; oxidizing conditions
T4 construct: cDNA encoding BFL-1ΔC (aa 1-153) was cloned into the pET19b expression vector; made in house; host or cells: Escherichia coli BL21(DE3) LOBSTR
T4 sequence (Q16548 1-153 C4S/C19S/C55S): T2 sequence (Q16548 1-153) with C4S, C19S, C55S
Method: as §1, §2

BCL-XLΔC = molecular target: T5, BCL-XLΔC (Homo sapiens, UniProt Q07817); test: In vitro covalent conjugation assay; format: binding; details: oxidizing conditions
T5 construct: MCL-1ΔNΔC (aa 170-327) and BCL-XLΔC (aa 1-212) constructs were cloned into pGEX-4T-1; GST (N, cleaved yes); made in house; host or cells: Escherichia coli BL21(DE3)
T5 sequence (Q07817 1-212, stated change not applied): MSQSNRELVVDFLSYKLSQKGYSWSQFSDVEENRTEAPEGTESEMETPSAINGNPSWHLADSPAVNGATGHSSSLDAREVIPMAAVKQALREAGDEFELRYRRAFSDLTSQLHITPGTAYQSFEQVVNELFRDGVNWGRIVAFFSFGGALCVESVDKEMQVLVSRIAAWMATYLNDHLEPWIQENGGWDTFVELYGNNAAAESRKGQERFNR
Method: (§3) After this incubation in a reducing environment, the mixture was diluted 5-fold into 50 mM Tris pH 8.0, 100 mM NaCl, 12 mM GSSG and incubated in the dark for an additional 30 min at RT. […] The gel was rinsed with water, subjected to FITC scan (Typhoon FLA 9500, GE Healthcare) and then Coomassie staining.
(§4) Processing for gel electrophoresis and Coomassie staining was performed as above.

MCL-1ΔNΔC = molecular target: T6, MCL-1ΔNΔC (Homo sapiens, UniProt Q07820); test: In vitro covalent conjugation assay; format: binding; details: oxidizing conditions
T6 construct: MCL-1ΔNΔC (aa 170-327) and BCL-XLΔC (aa 1-212) constructs were cloned into pGEX-4T-1; GST (N, cleaved yes); made in house; host or cells: Escherichia coli BL21(DE3)
T6 sequence (Q07820 170-327, stated change not applied): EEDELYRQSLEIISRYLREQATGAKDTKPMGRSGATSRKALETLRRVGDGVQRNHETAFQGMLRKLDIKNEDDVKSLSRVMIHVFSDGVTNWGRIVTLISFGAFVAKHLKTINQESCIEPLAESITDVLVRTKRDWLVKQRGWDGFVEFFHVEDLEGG
Method: as §3, §4

NOXA SAHBA: stapled NOXA BH3 (aa 19-43) peptide, i, i+4 all-hydrocarbon staple substituting R31 and K35; SEQ ID NO:124 (AELEVECATQLR[S5]FGD[S5]LNFRQKLL; staple 13-17; not fully specified)
covalent (disulfide) bond formation (Bfl-1 [1]): only Bfl-1 forms a covalent bond | inhibition of anti-apoptotic effects of Bfl-1 on BAX (Bfl-1 [2]; Bfl-1:NOXA disulfide bond formed prior to the assay): almost completely erases the effects of Bfl-1 | inhibition of anti-apoptotic effects of Bfl-1 on BAX (Bfl-1 [2]; NOXA added concurrently with Bfl-1): somewhat inhibited | molecular weight shift of wild-type BFL-1ΔC (disulfide bond) (BFL-1ΔC [3]): shift in the molecular weight | disulfide adduct with BFL-1ΔC C4S/C19S (BFL-1ΔC [4]): molecular weight shift (Coomassie stain) and FITC-labeling | disulfide adduct with BFL-1ΔC C4S/C19S/C55S (BFL-1ΔC [5]): no adduct | molecular weight shift or FITC labeling (BCL-XLΔC): no molecular weight shift or FITC labeling | molecular weight shift or FITC labeling (MCL-1ΔNΔC): no molecular weight shift or FITC labeling
